The supplement of paper PMC7877785
± gives the uncertainty stated by the source.

Experiment: self-splicing fitness, log relative to wild type (ln ratio); higher = more splicing; Tetrahymena group I intron in knt gene, E. coli kanamycin selection, DiMSum; sequences stand for … in CUCUCU…GGAGGGAAAAGUUAUCAGGCAUGCACCUGGUAGCUAGUCUUUAAACCAAUAGAUUGCAUCGGUUUAAAAGGCAAGACCGUCAAAUUGCGGGAAAGGGGUCAACAGCCGUUCAGUACCAAGUCUCAGGGGAAACUUUGAGAUGGCCUUGCAAAGGGUAUGGUAAUAAGCUGACGGACAUGGUCCUAACCACGCAGCCAAGUCCUAAGUCAACAGAUCUUCUGUUGAUAUGGAUGCAGUUCACAGACUAAAUGUCGGUCGGGGAAGAUGUAUUCUUCUCAUAAGAUAUAGUCGGACCUCUCCUUAAUGGGAGCUAGCGGAUGAAGUGAUGCAACACUGGAGCCGCUGGGAACUAAUUUGUAUGCGAAAGUAUAUUGAUUAGUUUUGGAGUACUCGUGGUCG
In short: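 The eight P1ex-region nucleotides of an intron in the knt kanamycin-resistance gene on pET-22b(+) were all randomised and the library put into E. coli BL21(DE3). Six replicate transformations were grown overnight at 37°C or 30°C on LB agar with or without 25 μg/mL kanamycin, together with 100 μg/mL carbenicillin, 50 μM IPTG and 0.2% rhamnose. Colonies were pooled and amplicon-sequenced on an Illumina HiSeq 2500. Fitness from DiMSum is the error-weighted combination of wild-type-normalised replicate fold changes, kanamycin over none.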

| Sequence | self-splicing fitness (ln) (30 °C) | self-splicing fitness (ln) (37 °C) |
| --- | --- | --- |
| CAAUAGCAAUAUUACGCCGG | 0.0303 ± 0.12 | 0.077 ± 0.15 |
| CAAUAGCAAUAUUACGGAAG | -1.36 ± 0.074 | -0.459 ± 0.09 |
| CAAUAGCAAUAUUACGGACG | -0.294 ± 0.058 | 0.146 ± 0.075 |
| CAAUAGCAAUAUUACGGCGU | -2.07 ± 0.11 | -0.986 ± 0.12 |
| CAAUAGCAAUAUUACGGGCG | 0.548 ± 0.093 | 0.28 ± 0.11 |
| CAAUAGCAAUAUUACGGGGA | -3.12 ± 0.39 | -2.61 ± 0.24 |
| CAAUAGCAAUAUUACGGGUU | -4.25 ± 0.2 | -2.31 ± 0.14 |
| CAAUAGCAAUAUUACGUAUG | -1.66 ± 0.12 | -1.7 ± 0.12 |
| CAAUAGCAAUAUUACGUCCA | -2.87 ± 0.29 | -2.25 ± 0.25 |
| CAAUAGCAAUAUUACGUCUC | -2.8 ± 0.18 | -3.4 ± 0.33 |
| CAAUAGCAAUAUUACGUGUA | -3.98 ± 0.18 | -2.29 ± 0.11 |
| CAAUAGCAAUAUUACGUUAG | -1.44 ± 0.057 | -0.481 ± 0.074 |
| CAAUAGCAAUAUUACGUUGU | -3.27 ± 0.14 | -2.12 ± 0.17 |
| CACAAGCAAUAUUACGAAUA | -2.08 ± 0.27 | -2.71 ± 0.23 |
| CACAAGCAAUAUUACGAAUU | -3.63 ± 0.26 | -2.75 ± 0.21 |
| CACAAGCAAUAUUACGACGU | -2.15 ± 0.086 | -0.614 ± 0.077 |
| CACAAGCAAUAUUACGACUC | -1.97 ± 0.11 | -0.998 ± 0.12 |
| CACAAGCAAUAUUACGAGUU | -2.91 ± 0.11 | -1.13 ± 0.089 |
| CACAAGCAAUAUUACGAUAG | -0.655 ± 0.046 | 0.242 ± 0.062 |
| CACAAGCAAUAUUACGAUAU | -3.34 ± 0.21 | -2.52 ± 0.15 |
| CACAAGCAAUAUUACGAUCC | -2.35 ± 0.21 | -1.45 ± 0.23 |

| Sequence | self-splicing fitness (ln) (30 °C) | self-splicing fitness (ln) (37 °C) |
| --- | --- | --- |
| CACAAGCAAUAUUACGCAAU | -3.31 ± 0.23 | -3.31 ± 0.26 |
| CACAAGCAAUAUUACGCACC | -3.98 ± 0.37 | -2.4 ± 0.3 |
| CACAAGCAAUAUUACGCCAA | -2.76 ± 0.27 | -2.01 ± 0.21 |
| CACAAGCAAUAUUACGCCAG | -1 ± 0.08 | -1.09 ± 0.11 |
| CACAAGCAAUAUUACGCCUA | -1.01 ± 0.091 | -0.204 ± 0.085 |
| CACAAGCAAUAUUACGCUGG | -4.18 ± 0.23 | -1.74 ± 0.14 |
| CACAAGCAAUAUUACGCUUC | -3.67 ± 0.18 | -2.59 ± 0.27 |
| CACAAGCAAUAUUACGGAAC | -4.35 ± 0.24 | -3.71 ± 0.25 |
| CACAAGCAAUAUUACGGACU | -2.54 ± 0.14 | -2.11 ± 0.14 |
| CACAAGCAAUAUUACGGCAA | -2.21 ± 0.1 | -1.55 ± 0.089 |
| CACAAGCAAUAUUACGGGGG | -3.12 ± 0.11 | -2.1 ± 0.11 |
| CACAAGCAAUAUUACGGUGC | -3.25 ± 0.2 | -2.72 ± 0.24 |
| CACAAGCAAUAUUACGUAAU | -3.79 ± 0.14 | -1.65 ± 0.1 |
| CACAAGCAAUAUUACGUAUU | -3.81 ± 0.17 | -2.66 ± 0.15 |
| CACAAGCAAUAUUACGUCUG | -1.34 ± 0.07 | -0.0931 ± 0.074 |
| CACAAGCAAUAUUACGUGCG | -2.32 ± 0.098 | -0.908 ± 0.082 |
| CACAAGCAAUAUUACGUUUA | -2.95 ± 0.15 | -1.95 ± 0.13 |
| CACCAGCAAUAUUACGAAAA | -3.1 ± 0.2 | -2.33 ± 0.2 |
| CACCAGCAAUAUUACGAAGC | -3.27 ± 0.15 | -2 ± 0.14 |
| CACCAGCAAUAUUACGAAGG | -1.1 ± 0.046 | -0.304 ± 0.077 |
| CACCAGCAAUAUUACGACGA | -2.13 ± 0.14 | -1.54 ± 0.12 |
